B1: Small glutamine-rich tetratricopeptide repeat-containing protein 2 (Saccharomyces cerevisiae), Q12118 (parent)
chain: MSASKEEIAALIVNYFSSIVEKKEISEDGADSLNVAMDCISEAFGFEREAVSGILGKSEFKGQHLADILNSASRVPESNKKDDAENVEINIPEDDAETKAKAEDLKMQGNKAMANKDYELAINKYTEAIKVLPTNAIYYANRAAAHSSLKEYDQAVKDAESAISIDPSYFRGYSRLGFAKYAQGKPEEALEAYKKVLDIEGDNATEAMKRDYESAKKKVEQSLNLEKTVPEQSRDADVDASQGASAGGLPDLGSLLGGGLGGLMNNPQLMQAAQKMMSNPGAMQNIQKMMQDPSIRQMAEGFASGGGTPNLSDLMNNPALRNMAGNLFGGAGAQSTDETPDNENKQ
partner: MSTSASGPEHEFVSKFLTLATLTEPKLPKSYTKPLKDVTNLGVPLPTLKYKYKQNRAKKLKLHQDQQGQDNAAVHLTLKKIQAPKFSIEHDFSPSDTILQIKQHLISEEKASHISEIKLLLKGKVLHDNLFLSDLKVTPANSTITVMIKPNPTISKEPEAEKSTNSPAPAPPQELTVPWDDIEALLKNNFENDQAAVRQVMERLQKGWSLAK

Variants of: B1
Details: with mdy2_yeast MDY2, Q12285

Row | Variant | effect of a mutation on the interaction
1 | D31R | decreasing interaction strength
2 | E42R | decreasing interaction strength
3 | F16Y | with no effect
4 | V35A | decreasing interaction strength
5 | D38R | disrupting interaction strength

From IntAct's records for PubMed 23297211
